# Assay results: patent US20240100159A1, “USE OF IL-7R-ALPHA-GAMMA AGONIST PEPTIDES IN CELL MANUFACTURING” (MEDIKINE, INC., priority 2022, published 2024)
# Ends that are not written are not given here.
# T1: hu-IL-7Rγc subunit (human), P31785
# T1 chain: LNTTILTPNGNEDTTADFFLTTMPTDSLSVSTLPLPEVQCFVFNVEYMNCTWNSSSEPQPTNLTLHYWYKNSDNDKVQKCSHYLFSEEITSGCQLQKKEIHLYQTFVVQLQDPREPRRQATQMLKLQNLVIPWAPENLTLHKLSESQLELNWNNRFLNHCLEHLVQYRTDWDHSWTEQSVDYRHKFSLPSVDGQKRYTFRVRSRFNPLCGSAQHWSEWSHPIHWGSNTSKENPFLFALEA
# T2: hu-IL-7Rγc subunit (human, UniProt P31785 23-262, limits assumed)
# T2 construct: also called human Rγc subunit; common γc receptor
# T2 sequence (looked up): T1 chain
# B1: SEQ ID NO 304 (peptide)
# peptide: PVEVRCQEWEGVELCWVVGI
# modifications: not checked
# B2: SEQ ID NO 314 (peptide)
# peptide: AVCQDWYGVELCWCMQDILD
# modifications: not checked
# B3: SEQ ID NO 256 (peptide)
# peptide: IVCEEWRGVELCWL
# modifications: not checked
# B4: SEQ ID NO 267 (peptide)
# peptide: TLGRTVVECQDWGGVELCWQ
# modifications: not checked
# B5: SEQ ID NO 319 (peptide)
# peptide: RWAVSCQDWQGIELCWPEWD
# modifications: not checked
# B6: SEQ ID NO 257 (peptide)
# peptide: DFERSYVVCQDWDGVELCWI
# modifications: not checked
# B7: SEQ ID NO 278 (peptide)
# peptide: GNDDSYIVCEEWKGVELCWI
# modifications: not checked
# B8: SEQ ID NO 262 (peptide)
# peptide: DVVCQNWEGVDLCWH
# modifications: not checked
# B9: SEQ ID NO 311 (peptide)
# peptide: QLGVECQNWRGVELCWVSEI
# modifications: not checked
# B10: SEQ ID NO 266 (peptide)
# peptide: DVVCQNWDGVDLCWH
# modifications: not checked
# B11: SEQ ID NO 291 (peptide)
# peptide: GYGVLCQEWQGVELCWPVQREAGV
# modifications: not checked
# B12: SEQ ID NO 308 (peptide)
# peptide: VVCQEWEGVELCWQTGPGAHA
# modifications: not checked
# B13: SEQ ID NO 322 (peptide)
# peptide: RTEVECEDWEGVELCWL
# modifications: not checked
# B14: SEQ ID NO 251 (peptide)
# peptide: HEAREVVVCQDWYGVELCWQ
# modifications: not checked
# B15: SEQ ID NO 269 (peptide)
# peptide: IVCEDWRGVELCWI
# modifications: not checked
# B16: SEQ ID NO 249 (peptide)
# peptide: IWGRTVVECQDWEGVELCWQ
# modifications: not checked
# B17: SEQ ID NO 264 (peptide)
# peptide: GQGREVVVCHDWYGVELCWQ
# modifications: not checked
# B18: SEQ ID NO 305 (peptide)
# peptide: GPEVVCEEFNRVELCWVEYN
# modifications: not checked
# B19: SEQ ID NO 299 (peptide)
# peptide: RPEVVCQEWEGVELCWISPL
# modifications: not checked
# B20: SEQ ID NO 271 (peptide)
# peptide: GDRPKEVVCEDWKGVELCWI
# modifications: not checked
# B21: SEQ ID NO 263 (peptide)
# peptide: SAGRQEVVCQDWNGVELCWI
# modifications: not checked
# B22: SEQ ID NO 312 (peptide)
# peptide: TAEVVCQEWDGVELCWIEVL
# modifications: not checked
# B23: SEQ ID NO 253 (peptide)
# peptide: TANQTVVECQVWGGVELCWQ
# modifications: not checked
# B24: SEQ ID NO 277 (peptide)
# peptide: TWNMSELECQDWNGVEICWH
# modifications: not checked
# B25: SEQ ID NO 289 (peptide)
# peptide: IMCQEWDGVELCWLERDKAN
# modifications: not checked
# B26: SEQ ID NO 294 (peptide)
# peptide: INCQTWNGVELCWVDEGLYQ
# modifications: not checked
# B27: SEQ ID NO 297 (peptide)
# peptide: DRQVVCEEWDGVELCWIEES
# modifications: not checked
# B28: SEQ ID NO 274 (peptide)
# peptide: ANQNTVVECQDWHGVELCWQ
# modifications: not checked
# B29: SEQ ID NO 254 (peptide)
# peptide: VECQEWGGVELCWC
# modifications: not checked
# B30: SEQ ID NO 288 (peptide)
# peptide: VSCQEWDGVELCWVDGDLAA
# modifications: not checked
# B31: SEQ ID NO 259 (peptide)
# peptide: SAPERWVECEDWQGVELCWV
# modifications: not checked
# B32: SEQ ID NO 296 (peptide)
# peptide: RVQVECEDWNGVELCWPVRV
# modifications: not checked
# B33: SEQ ID NO 309 (peptide)
# peptide: IVCEEYNGVELCWVETSVKP
# modifications: not checked
# B34: SEQ ID NO 280 (peptide)
# peptide: LNRSVWIECEEYEGVELCWL
# modifications: not checked
# B35: SEQ ID NO 303 (peptide)
# peptide: TDEVSCQEWEGVELCWIERQ
# modifications: not checked
# B36: SEQ ID NO 265 (peptide)
# peptide: DWRRSVVECQDWYGVELCWQ
# modifications: not checked
# B37: SEQ ID NO 306 (peptide)
# peptide: KYIVECQEWGGVELCWPEMV
# modifications: not checked
# B38: SEQ ID NO 310 (peptide)
# peptide: EQQVVCQEWNGVELCWIEAG
# modifications: not checked
# B39: SEQ ID NO 247 (peptide)
# peptide: IECEEWRGVELCWQ
# modifications: not checked
# B40: SEQ ID NO 318 (peptide)
# peptide: SVEVVCEEWHGVELCWPVFI
# modifications: not checked
# B41: SEQ ID NO 272 (peptide)
# peptide: ERPRSFIECQEWEGVELCWL
# modifications: not checked
# B42: SEQ ID NO 286 (peptide)
# peptide: KITVECQDWDGVELCWPTWI
# modifications: not checked
# B43: SEQ ID NO 285 (peptide)
# peptide: KSQVECQDWEGVELCWVVSE
# modifications: not checked
# B44: SEQ ID NO 315 (peptide)
# peptide: VECEEWGGVELCWLADEVMW
# modifications: not checked
# B45: SEQ ID NO 313 (peptide)
# peptide: SPSIVCEEWAGVELCWVDYS
# modifications: not checked
# B46: SEQ ID NO 292 (peptide)
# peptide: PYGVVCQDWAGVELCWVENR
# modifications: not checked
# B47: SEQ ID NO 287 (peptide)
# peptide: RPQIECQEWQGVELCWTREE
# modifications: not checked
# B48: SEQ ID NO 300 (peptide)
# peptide: RLGVECQEWEGVDLCWISAF
# modifications: not checked
# B49: SEQ ID NO 290 (peptide)
# peptide: GLEIACEDWYGVELCWLRRA
# modifications: not checked
# B50: SEQ ID NO 316 (peptide)
# peptide: HSTVICQDWDGVELCWIEND
# modifications: not checked
# B51: SEQ ID NO 248 (peptide)
# peptide: PEGREVVVCRDWYGVELCWQ
# modifications: not checked
# B52: SEQ ID NO 250 (peptide)
# peptide: LALRKEVVCQEYYGVELCWI
# modifications: not fully specified (bridges); cysteine pairing not given here
# notes: also called Rγc ligand
# B53: SEQ ID NO 252 (peptide)
# peptide: MVNREVVVCEDWYGVELCWQ
# modifications: not fully specified (bridges); cysteine pairing not given here
# notes: also called Rγc ligand
# B54: SEQ ID NO 320 (peptide)
# peptide: RTGVECQDWHGVELCWPVWE
# modifications: not fully specified (bridges); cysteine pairing not given here
# notes: also called Rγc ligand
# B55: SEQ ID NO 255 (peptide)
# peptide: DVECVDWGGVELCWH
# modifications: not fully specified (bridges); cysteine pairing not given here
# notes: also called Rγc ligand
# B56: SEQ ID NO 323 (peptide)
# peptide: ILCEEWQGVELCWLEGGGS
# modifications: not fully specified (bridges); cysteine pairing not given here
# notes: also called Rγc ligand
# B57: SEQ ID NO 321 (peptide)
# peptide: GYGVVCEDFRGVELCWLERK
# modifications: not fully specified (bridges); cysteine pairing not given here
# notes: also called Rγc ligand
# B58: SEQ ID NO 324 (peptide)
# peptide: VGIECEEWAGVELCWL
# modifications: not fully specified (bridges); cysteine pairing not given here
# notes: also called Rγc ligand
# B59: SEQ ID NO 258 (peptide)
# peptide: AHSRQEVVCEEWYGVELCWI
# modifications: not fully specified (bridges); cysteine pairing not given here
# notes: also called Rγc ligand
# B60: SEQ ID NO 260 (peptide)
# peptide: YSRELYVQCEDWEGVELCWI
# modifications: not fully specified (bridges); cysteine pairing not given here
# notes: also called Rγc ligand
# B61: SEQ ID NO 246 (peptide)
# peptide: IECDTSYGVYICWQ
# modifications: not fully specified (bridges); cysteine pairing not given here
# notes: also called Rγc ligand
# Biological target: T1, hu-IL-7Rγc subunit (human), P31785
row,IC50,Binder
1,< 100 µM,B1
2,< 100 µM,B2
3,< 100 µM,B3
4,< 100 µM,B4
5,< 100 µM,B5
6,< 100 µM,B6
7,< 100 µM,B7
8,< 100 µM,B8
9,< 100 µM,B9
10,< 100 µM,B10
11,< 100 µM,B11
12,< 100 µM,B12
13,< 100 µM,B13
14,< 100 µM,B14
15,< 100 µM,B15
16,< 100 µM,B16
17,< 100 µM,B17
18,< 100 µM,B18
19,< 100 µM,B19
20,< 100 µM,B20
21,< 100 µM,B21
22,< 100 µM,B22
23,< 100 µM,B23
24,< 100 µM,B24
25,< 100 µM,B25
26,< 100 µM,B26

row,IC50,Binder
1,< 100 µM,B27
2,< 100 µM,B28
3,< 100 µM,B29
4,< 100 µM,B30
5,< 100 µM,B31
6,< 100 µM,B32
7,< 100 µM,B33
8,< 100 µM,B34
9,< 100 µM,B35
10,< 100 µM,B36
11,< 100 µM,B37
12,< 100 µM,B38
13,< 100 µM,B39
14,< 100 µM,B40
15,< 100 µM,B41
16,< 100 µM,B42
17,< 100 µM,B43
18,< 100 µM,B44
19,< 100 µM,B45
20,< 100 µM,B46
21,< 100 µM,B47
22,< 100 µM,B48
23,< 100 µM,B49
24,< 100 µM,B50
25,< 100 µM,B51

# Biological target: T2, hu-IL-7Rγc subunit
row,IC50,Binder
1,< 100 µM,B52
2,< 100 µM,B53
3,< 100 µM,B54
4,< 100 µM,B55
5,< 100 µM,B56
6,< 100 µM,B57
7,< 100 µM,B58
8,< 100 µM,B59
9,< 100 µM,B60
10,< 100 µM,B61
